These results are taken from FireProtDB (doi:10.1021/bi00185a025).

The chains are these.
B1: Chemotaxis protein CheY, P0AE67 (parent)
chain: MADKELKFLVVDDFSTMRRIVRNLLKELGFNNVEEAEDGVDALNKLQAGGYGFVISDWNMPNMDGLELLKTIRADGAMSALPVLMVTAEAKKENIIAAAQAGASGYVVKPFTAATLEEKLNKIFEKLGM

This data set covers variants of B1. To be noted: Escherichia coli (strain K12); pH 7; 25 °C; Urea; CD; Sodium phosphate 5 mM; reversible: yes; structure 1CEY; whole UniProt chain shown.

For the variant F14N, the “ddG of mutation (higher = less stable)” value is -2.9 kcal/mol, the denaturant m value amounted to 1.8 kcal/mol/M, the “denaturant midpoint (higher = more stable)” value is 4.5 M and the unfolding free energy was determined as 8.1 kcal/mol.

On to P110G F14N, for which the “ddG of mutation (higher = less stable)” value was -1.1 kcal/mol, the denaturant m value was found to be 1.6 kcal/mol/M, the “denaturant midpoint (higher = more stable)” value came out at 3.94 M and the unfolding free energy is 6.3 kcal/mol.
